In patent US20190144550A1:

Tests used:
[1] = biological target: wild-type EGFR expressed on cells (human), P00533; experiment: flow cytometry, F98-EGFRwt cells; details: remark: other sources report otherwise
[2] = biological target: wild-type EGFR expressed on cells (human), P00533; experiment: flow cytometry, A431 cells; details: remark: other sources report otherwise

Row | Binder | % positive [1] | MFI [1] | % positive [2] | MFI [2]
1 | 42G9 (antibody, V domains shown) VH: QVTLKESGPVLLKPTETLTLTCTVSGFSLSNPRMGVSWIRQPPGKALEWFAHIFSTDEKSLKLSLRSRLTLSKDTSKSQVVLTMTNMAPVDSATYYCARDSSNYEGYFDFWGQGTLVTVSS VL: EVVLTQSPATLSVSPGERATLSCRASQSVRSNLAWYQQKSGQAPRLLIYGSTIRATGVPARFSGSGSGTEFTLTISSLQSEDFAVYYCQQYSDWPFTFGPGTKVDIK | 1.6% | 185 | 0.3% | 538
2 | 32A10 (antibody, V domains shown) VH: QVTLKESGPVLVKPTETLTLTCTVSGFSLSNARMGVSWIRQPPGKALEWLAHIFSTDEKSIRRSLRSRLTLSKDTSKSQVVLTMTNMDPVDTATYFCARDSSNYEGYFDYWGQGTLVTVSS VL: EVVMTQSPATLSVSPGERVTLSCRASQSVSSNFAWYQQRPGQAPRLLLYGATTRATGLPGRFSGSGSGTENILTISSLQSEDFAIYFCQQYKDWPFTFGPGSKVDIK |  | 185 |  | 531
3 | 21E11 (antibody, V domains shown) VH: QVTLKESGPVLVKPTETLTLTCTVSGFSLSNVRMGVSWIRQPPGKALEWFAHIFSSDEKSIRRSLRSRLTLSKDTSKSQVVLTMTNMDPVDTATYYCARDSSNYEGYFDFWGQGTLVTVSSN VL: DMVVTQSPATLSVSPGERATLSCRASQSVGSDLAWYQQPPGQSPRLLIYGASTRATGVPARFSGSGSGTDFTLTITSLESEDFAVYYCQQYNDWPFTFGPGTKVDIK | 1.3% | 184 |  | 555
4 | 49B11 (antibody, V domains shown) VH: QVTLKESGPVLVKPTETLTLTCTVSGFSLSNVRMGVSWIRQPPGKALEWFAHIFSSDEKSIRRSLRSRLTLSKDTSKSQVVLTMTNMDPVDTATYYCARDSSNYEGYFDYWGQGTLVTVSS VL: EMEVTQSPATLSVSPGERATLSCRASQNIGSDLAWYQQQSGQAPRLLISGASTRATGVPTRFSGSGSGTDFTLTITSLQSEDFAVYYCQQYNDWPFTFGPGTKVDIK | 1.3% | 185 | 0.8% | 599
5 | 46E10 (antibody, V domains shown) VH: QVTLKESGPVLVKPTETLTLTCTVSGFSLSNARMGVSWIRQPPGKALEWLAHIFSTDEKSIRRSLRSRLTLSKDTSKSQVVLIMTNMDPVDTATYYCARDSSNYEGYFDYWGQGTLVTVSS VL: EVVMTQSPPNLSVSPGERATLSCRASQSVTSNFAWYQQRPGQSPRLLLYGASTRATGVPGRFSGSGSGTENILTISSLQSEDFAVYFCQQYKDWPFTFGPGSKVDIK | 1.6% | 187 |  | 560
6 | 12H6 (antibody, V domains shown) VH: QVTLKESGPVLVKPTETLTLTCTVSGFSLSNARMGVSWIRQPPGKALEWLAHIFSTDEKSIRRSLRSRLTLSKDTSKSQVVLTMTNMDPVDTATYYCARDSSNYEGYFDYWGQGTLVTVSS VL: EVVMTQSPATLSVSPGERATLSCRASQGVSSNFAWYQQRPGQSPRLLLYGASTRATGVPGRFSGSGSGTENILTISSLQSEDFAIYFCQQYKDWPFTFGPGSKVDIK | 1.9% | 188 | 0.8% | 569
7 | 19A9 (antibody, V domains shown) VH: QVTLEESGPVLVKPTETLTLTCTVSGFSLSNARMGVSWIRQPPGKAPEWFAHIFSTDEKSLRLSLRSRLTLSKDTSKSQVVLTMTNMDPVDTATYYCARDSSNYEGYFDYWGQGTLVTVSS VL: EVVMTQSPATLSVSPGERATLSCRASQSVNRNLAWYQQKPGQAPRLLIFGTSTRATGIPARFSGSGSGTEFTLTIDSLQSEHSGLYYCQQYNDWPFTFGPGTKVDIK | 1.6% | 168 |  | 578
8 | 11B11 (antibody, V domains shown) VH: QVTLKESGPVLVKPTETLTLTCTVSGFSLSNAKMGVSWIRQPPGKALEWLAHIFSTDEKSIRRSLRSRLTMSKDTSKSQVVLTMTNMDPVDTATYYCVRDSSNYEGYFDYWGQGTLVTVSS VL: EVLMTQSPATLSVSPGERATLSCRASQSVSTNFAWYQQRPGQAPRLLLFGASTRATGIPGRFSGSGSGTENILTISSLQSEDFAIYFCQQYKDWPFTFGPGSKVEIK | 1.7% | 187 |  | 589
9 | 21E7 (antibody, V domains shown) VH: QVTLEESGPVLVKPTETLTLTCTVSGFSLSNARMGVSWIRQPPGKAPEWFAHIFSTDEKSLRLSLRSRLTLSKDTSKSQVVLTMTNMDPVDTATYYCARDSSNYEGYFDYWGQGTLVTVSS VL: DVVLTQSPATLSVSPGERATLSCRASQSVNSNLAWYQQNPGQAPRLLIFGSSTRATGIPASFSGSGSGTEFTLTINSLQSEHSAVYYCQQYNDWPFTFGPGTKVDIK | 1.3% | 184 | 1.1% | 603
10 | 20B9 (antibody, V domains shown) VH: QVTLKESGPVLVKPTETLTLTCTVSGFSLSNARMGVSWIRQPPGKALEWLGHIFSTDEKSYSTSLRGRITISKDTSRGLVVLTLTNMDPVDTATYYCARDSSNYEGYFDFWGPGFLVTVSS VL: EIVMTQSPATLSVSPGERATLSCRVSQSIGANLAWYQQKFGQAPRLLIYGASTRATGIPVRFSGGGSGTEFTLTISSLQSEDFAIYSCQQYIYWPFTFGPGTTVDIK | 1.8% | 189 |  | 558
11 | 12B2 (antibody, V domains shown) VH: QVTLKESGPVLVKPTETLTLTCTVSGFSLSNPRMGVSWIRQPPGKALEWLGHIFSSDEKSYRLSLRSRLSISKDTSKSQVVLTMTNMDPVDTATYYCVRDSSNYGGYFDYWGQGTLVTVSS VL: EVVMTQSPATLSVSPGERATLSCRASQSVINNLAWYQQKPGQAPRLLIYGTSTRATDIPARFSGSGSGTEFTLTISSLQSEDFAVYYCQDYNNWPFTFGPGTKVDIK | 1.5% | 185 | 0.8% | 571
12 | 11F10 (antibody, V domains shown) VH: QVTLKESGPVLVKPIETLTLTCTVCGFSLSNPRMGVSWIRQPPGKALEWLGHIFSSDEKSYRLFLRSRLSISKDTSKSQVVLTMTNMDPVDTATYYCARDSSDYEGYFDYWGQGTLVTVSS VL: EIVMTQSPATLSVSPGERTTLSCRASQSVGSNLAWYQQKPGQAPRLLIYGASTRASGVPARFSGSGSGTEFTLTISSLQSEDFAVYSCQEYNNWPFTFGQGTKVEIK | 1.6% | 187 | 1.1% | 582
13 | 29D5 (antibody, V domains shown) VH: QVTLKESGPVLVKPTETLTLTCTVSGFSLSNPRMGVSWLRQPPGKALEWFAHIFSTDEKSYSPSLRGRLTVSKDTSKSQVVLTLTNMDPVDTATYYCARDSSNYEGYFDYWGQGTLVTVSS VL: KIVMTQSPATLSVSPGERATLSCRANQIVSSNLAWYQQKPGQAPRLLVFGTSTRATGIPIRFSGSGSGTEFTLTVSSLQSEDFAVYVCQQYNDWPFTFGPGTKVDIK | 1.3% | 185 | 0.4% | 531
14 | 14C11 (antibody, V domains shown) VH: QVTLKESGPVLVKPTETLTLTCTVSGFSLNNARMGVSWIRQPPGKALEWFAHIFSTDEKSFRTSLRSRLTLSKDTSKSQVVLTMTNMDPVDTATYYCARDSSNYEGYFDYWGQGILVTVSS VL: EIVMTQSPATLSVSPGERATLSCRASQSVSNNLAWYQQKPGQAPRLLIYGASTRATGVPARFSGSDSGTEFSLTISSLQSEDFAVYFCQQYKDWPFTFGPGTKVEIK | 1.3% | 185 | 0.8% | 580
15 | 20E12 (antibody, V domains shown) VH: EVNLVESGGGLVKPGGSLRLSCEASGFTFSYAWMSWVRQAPGKGLEWVGRIKSIADGGATDYAAPVRNRFTISRDDSRNTLYLEMHSLKTEDTAVYYCTTIPGNDAFDMWGQGTMVTVSS VL: DIVLTQSPLSLSVTPGEPASISCRSSQSLLYSNGKNYLDWFLHKPGQSPQLLIYLGSNRASGVPDRFSGSGSGIDFILKISRVEAEDVGVYYCMQAQQTPITFGQGTRLEIK | 3.4% | 348 | 2.6% | 302
16 | 20G5 (antibody, V domains shown) VH: EVQLVESGGDLVKPGGSLRLSCAASGFTFTNAWMSWVRQAPGKGLEWVGRIKSKIDGGTTDYAAPVKGRFIISRDDSKNTLSLQMNSLKTEDTAMYYCTTAPGGPFDYWGQGSLVTVSS VL: DIVLTQSPLSLPVTPGEPASISCRSSQSLLYSDRRNYLDWFLQKPGQSPHLLIYLGSYRASGVPDRFSGSGSGTDFTLKISRVEAEDVGVYYCMQALQIPITFGQGTRLEIK | 12.6% | 1070 |  | 391
17 | 26B9 (antibody, V domains shown) VH: EVQLVESWGVLVKPGGSLRLSCAASGFIFNNAWMSWVRQAPGKGLEWIGRIKSKSDGGTTDYAAPVKDRFTISRDDSKDTLYLQMNGLKTEDTAVYFCTTAPGGPFDYWGQGTLVTVSS VL: DIVLTQSPLSLPVTPGEPASISCRSSQSLLHRDGFNYLDWFLQKPGQSPQLLIYLASSRASGVPDRFSGSDSGTDFTLKISRVEAEDVGVYYCMQALQTPITFGQGTRLEIK | 2.3% | 298 | 1.7% | 276
18 | 30D8 (antibody, V domains shown) VH: EVQLVESGGGLVKPGGSLRLSCEASGFTFSDAWMSWVRQAPGKGLEWVGRIKSKTDGGTTDYVVPLNGRFIISRDDSRNTLYLQLNNLKTEDTAVYYCTTVPGSYGYWGQGTLVTVSS VL: DIVMTQSPLSLPVTPGEPASISCRSSQSLLHNKRNNYLDWFLQKPGQSPQLLIYLASNRASGVPDRFSGGGSGTDFTLKISRVEAEDVGVYYCMQAQQTPITFGQGTRLEIK | 1.7% | 280 | 1.3% | 269
19 | 32G8 (antibody, V domains shown) VH: EVNLVESGGGLVKPGGSLRLSCEASGFTFSYAWMSWVRQAPGKGLEWVGRIKSITDGGVIDYAAPVRNRCTISRDDSRNTLYLEMHSLKTEDTAVYYCTTIPGNDDFDMWGQGRMVTVSS VL: DIVLTQSPLSLSVTPGEPASISCRSSQSLLYSNGKNYLDWFLHKPGQSPQLLIYLGSNRASGVPDRFSGSGSGIDFILKISRVEAEDVGVYYCMQAQQTPITFGQGTRLEIK | 1.6% | 301 |  | 271
